Results from patent US20260116991A1 (HAINAN SIMCERE ZAIMING PHARMACEUTICAL, published 2026).

T1: polypeptide GC3pep (human)
T1 construct: also called membrane proximal polypeptide GC3pep
T1 peptide: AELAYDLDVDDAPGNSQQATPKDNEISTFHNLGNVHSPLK


Columns and labels:
polypeptide GC3pep [1] = target: T1, polypeptide GC3pep; assay: ELISA, GC3pep coated, antibody 0.1 nM;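 note: antibody allowed to bind the coated plate 2 h at 37 °C, then detected via HRP-conjugated secondary antibody and TMB development for 10 min, stopped with HCl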
Protocol: The plate was sealed with a plastic film and incubated at 4° C. overnight, washed twice with PBS the next day, and a blocking solution [PBS+2% (w/w) BSA] was added for blocking at room temperature for 2 h. […] After incubation at 37° C. for 2 h, the plate was washed 3 times with PBS. A horseradish peroxidase (HRP)-labeled secondary antibody (purchased from Merck, Cat. No. AP113P) was added for incubation at 37° C. for 1 h, and the plate was washed 5 times with PBS. A TMB substrate was added at 50 μL/well for incubation at room temperature for 10 min, then a stop solution (1.0M HCl) was added at 50 μL/well.

polypeptide GC3pep [2] = target: T1, polypeptide GC3pep; assay: ELISA, GC3pep coated, antibody 1 nM;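 note: bound antibody detected with an HRP-conjugated secondary antibody and TMB substrate, reaction stopped with HCl, after 2 h binding at 37 °C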
polypeptide GC3pep [3] = target: T1, polypeptide GC3pep; assay: ELISA, GC3pep coated, antibody 100 nM;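 note: detection with an HRP-conjugated secondary antibody and TMB substrate, color reaction stopped with HCl before absorbance reading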
polypeptide GC3pep [4] = target: T1, polypeptide GC3pep; assay: ELISA, GC3pep coated, antibody 0.0001 nM
polypeptide GC3pep [5] = target: T1, polypeptide GC3pep; assay: ELISA, GC3pep coated, antibody 10 nM;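 note: antibody bound to the coated peptide for 2 h at 37 °C, detected through an HRP-conjugated secondary antibody with TMB colour development stopped by acid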
polypeptide GC3pep [6] = target: T1, polypeptide GC3pep; assay: ELISA, GC3pep coated, antibody 0.001 nM
polypeptide GC3pep [7] = target: T1, polypeptide GC3pep; assay: ELISA, GC3pep coated, antibody 0.01 nM;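 note: bound antibody detected with an HRP-conjugated secondary antibody and TMB substrate, color reaction stopped with HCl before reading absorbance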

OD450 nm (polypeptide GC3pep [1]) [OD450 nm] | OD450 nm (polypeptide GC3pep [2]) [OD450 nm] | OD450 nm (polypeptide GC3pep [3]) [OD450 nm] | OD450 nm (polypeptide GC3pep [4]) [OD450 nm] | OD450 nm (polypeptide GC3pep [5]) [OD450 nm] | OD450 nm (polypeptide GC3pep [6]) [OD450 nm] | OD450 nm (polypeptide GC3pep [7]) [OD450 nm] | Binder
1.35 | 2.21 | 2.58 | 0.05 | 2.38 | 0.09 | 0.32 | F2.39.2 (antibody, human IgG1, kappa, V domains shown, human-murine chimeric antibody) VH: QVQLQQSGAELVRPGASVKVSCKASGYTFTDYEMHWMKQTPVHGLEWIGANEPETGRSAYDQKFKGKATLTADKSSSTAYMELRSLTSEDSAVYYCTRFYSFAYWGQGTLVTVSA VL: DVVMTQTPLSLPVSLGDQASISCRSSQGLVHNNGNTYLHWYLQKPGQSPKLLIYKVSNRFSGVPDRFSGSGSGTDFTLKISRVEAEDLGVYFCSQNTHVPPTFGGGTKLEIKR
0.85 | 1.92 | 2.41 | 0.05 | 2.28 | 0.07 | 0.15 | F2.92.1 (antibody, human IgG1, kappa, V domains shown, human-murine chimeric antibody) VH: QVQLQQSGAELVRPGASVKLSCKASGYIFSDYEIHWVKQTPVHGLECIGAVDPETGGTAYNQKFKGKATLTADKSSSTAYMELRSLTSEDSAVYFCTRFYSFAYWGQGTLVTVST VL: DVVMTQTPLSLPVSLGDQGSISCRSSQSLVHSNGNTYLQWYLQKPGQSPKLLIYKVSNRFSGVPDRFSGSGSGTDFTLKISRVEAEDLGVYFCCQSTHVLPTFGGGTKLEIKR
1.13 | 2.29 | 2.73 | 0.05 | 2.42 | 0.06 | 0.2 | F2.154.1 (antibody, human IgG1, kappa, V domains shown, human-murine chimeric antibody) VH: QVQLQQSGAELVRPGASVKLSCKASGYRFTDYEMHWVKQTPVHGLEWIGTIDPETGNTAYTQKFMDKATLTADKSSSTAYMELRSLTSEDSAVYYCTRGYSFTYWGQGTLATVSA VL: DVLMTQTPLSLPVSLGDQASISCRSSQNIVHSNGNTYLQWYLQKPGQSPKLLIFKVSNRFSGVPDRFSGSGSGTDFTLKISRVEAEDLGVYYCFQGSHVPFTFGTGTKLEIKR
1.25 | 2.36 | 2.73 | 0.05 | 2.38 | 0.06 | 0.24 | F2.169.2 (antibody, human IgG1, kappa, V domains shown, human-murine chimeric antibody) VH: EVQLVETGGGLVQPKGSLKLSCAASGFSFNTNAMNWVRQAPGKGLEWVARIRSKSNNYATYYADSVKDRFTISRDDSQSMLYLQMNNLKTEDTAMYYCVRDGYYVLFAYWGQGTLVTVSA VL: DVLMTQTPLSLPVSLGDQASISCRFSQSIVNSNGNTYLEWFLQKPGQSPKLLIYKVSNRFSGVPDRFSGSGSGTDFTLKISRVEAEDLGVYYCFQGSHVPFTFGTGTKLEIKR
1.38 | 2.12 | 2.51 | 0.07 | 2.42 | 0.1 | 0.3 | F2.23.8 (antibody, human IgG1, kappa, V domains shown, human-murine chimeric antibody) VH: QVQLQQSGAELVRPGASVKLSCKASGYTFTDYEMHWVKQTPVHGLEWFGAIDPETGGTAYNQKFRAKATLTADKSSSTAYMELRSLTSEDSAVYYCTRFYSFAYWGQGTLVTVSA VL: DVVMTQTPLSLPVSLGDQASISCRSSQSLVHSNGNTYLQWYLQKPGQSPKLLIYKVSNRFSGVPDRFSGSGSGTDFTLKITRVEAEDLGVYFCSQSTHVPYTFGSGTKLEIKR
1.34 | 2.41 | 2.85 | 0.05 | 2.51 | 0.07 | 0.26 | F2.55.11 (antibody, human IgG1, kappa, V domains shown, human-murine chimeric antibody) VH: EVKLVESGGGLVKPGGSLKLSCAASGLTFSTCTMSWVRQTPAKRLEWVATISSGGGNTYYPDSVKGRFTISRDNARNTLYLQMSSLRSEDTAMYYCVRLYYDGSPYAMDYWGQGTSVTVSS VL: DIQMTQTTSSLSASLGDRVTISCRASQDISNHLNWYQQKPDGTVKLLIYYTSRLHSGVPSRFSGSGSGTDYSLTISNLEQEDIATYFCQQDSKPPPTFGSGTKLEIKR
